According to patent publication US20040214255A1 (MYRIAD GENETICS, published 2004):
One block for each binder: values may come before it.

Columns and labels:
Assay in all cases: yeast two-hybrid
[1] = biological target: T1, Insulin-Regulated Membrane-Spanning Aminopeptidase (IRAP), amino acids 129-473 (human, UniProt Q9UIQ6 129-473)
T1 construct: range 129-473; also called vp165; gp160
Excerpt: (§1) The new construct was selected directly in the yeast strain PNY200 for its ability to drive tryptophane synthesis (genotype of this strain: […] trp1-901 leu2-3,112 ura3-52 his3-200 ade2 gal4Δ gal80). In these yeast cells, the bait was produced as a C-terminal fusion protein with the DNA binding domain of the transcription factor Ga14 (amino acids 1 to 147). Prey libraries were transformed into the yeast strain BK100 (genotype of this strain: MATα trp1-901 leu2-3,112 ura3-52 his3-200 gal4Δ gal80 LYS2::GAL-HIS3 GAL2-ADE2 met2::GAL7-lacZ), and selected for the ability to drive leucine synthesis. In these yeast cells, each cDNA was expressed as a fusion protein with the transcription activation domain of the transcription factor Ga14 (amino acids 768 to 881) and a 9 amino acid hemagglutinin epitope tag. PNY200 cells (MATα mating type), expressing the bait, were then mated with BK100 cells (MATa mating type), expressing prey proteins from a prey library. The resulting diploid yeast cells expressing proteins interacting with the bait protein were selected for the ability to synthesize tryptophan, leucine, histidine, and adenine. DNA was prepared from each clone, transformed by electroporation into E. coli strain KC8 (Clontech KC8 electrocompetent cells, Catalog No. C2023-1), and the cells were selected on ampicillin-containing plates in the absence of either tryptophane (selection for the bait plasmid) or leucine (selection for the library plasmid). DNA for both plasmids was prepared and sequenced by the dideoxynucleotide chain termination method. The identity of the bait cDNA insert was confirmed and the cDNA insert from the prey library plasmid was identified using the BLAST program to search against public nucleotide and protein databases. Plasmids from the prey library were then individually transformed into yeast cells together with a plasmid driving the synthesis of lamin and 5 other test proteins, respectively, fused to the Ga14 DNA binding domain. Clones that gave a positive signal in the β-galactosidase assay were considered false-positives and discarded. […] Clones that gave a positive signal in the β-galactosidase assay were considered true positives.

[2] = biological target: T2, BAP31, amino acids 111-247 (human, UniProt P51572 111-246)
T2 construct: range 111-247
T2 sequence (looked up): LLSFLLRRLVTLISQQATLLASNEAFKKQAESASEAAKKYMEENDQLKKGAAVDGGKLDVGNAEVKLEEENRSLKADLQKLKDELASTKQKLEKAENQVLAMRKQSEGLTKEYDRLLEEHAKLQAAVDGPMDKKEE
Excerpt: as §1

[3] = biological target: T3, Dynamin, amino acids 250-700 (human, UniProt Q05193 250-700)
T3 construct: range 250-700
T3 sequence (looked up): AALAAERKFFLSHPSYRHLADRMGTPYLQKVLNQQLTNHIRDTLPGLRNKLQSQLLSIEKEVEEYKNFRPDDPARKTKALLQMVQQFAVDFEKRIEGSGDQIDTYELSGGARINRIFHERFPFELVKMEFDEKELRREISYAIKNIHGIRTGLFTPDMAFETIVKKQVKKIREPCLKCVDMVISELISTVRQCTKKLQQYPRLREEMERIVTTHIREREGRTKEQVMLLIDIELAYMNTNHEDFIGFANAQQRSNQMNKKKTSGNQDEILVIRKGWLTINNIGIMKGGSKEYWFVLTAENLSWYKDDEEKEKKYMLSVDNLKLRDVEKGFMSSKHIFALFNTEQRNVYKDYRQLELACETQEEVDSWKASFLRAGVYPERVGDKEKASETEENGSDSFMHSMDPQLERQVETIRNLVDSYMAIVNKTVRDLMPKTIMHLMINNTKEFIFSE
Excerpt: as §1

[4] = biological target: T4, 14-3-3-Zeta, amino acids 79-246 (human, UniProt P63104 79-245)
T4 sequence: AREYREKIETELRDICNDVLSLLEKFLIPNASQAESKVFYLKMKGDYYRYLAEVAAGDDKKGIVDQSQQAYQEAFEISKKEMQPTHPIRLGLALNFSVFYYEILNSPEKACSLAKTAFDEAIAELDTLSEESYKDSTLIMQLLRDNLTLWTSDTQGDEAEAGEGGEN
Excerpt: as §1

[5] = biological target: T5, 14-3-3-Eta, amino acids 91-246 (human, UniProt Q04917 91-246)
T5 construct: range 91-246
T5 sequence (looked up): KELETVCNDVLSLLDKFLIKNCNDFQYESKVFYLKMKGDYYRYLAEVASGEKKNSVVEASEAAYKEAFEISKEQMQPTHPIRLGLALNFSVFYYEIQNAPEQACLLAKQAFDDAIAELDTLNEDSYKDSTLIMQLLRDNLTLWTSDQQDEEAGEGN
Excerpt: as §1

[6] = biological target: T6, Tropomyosin 3, amino acids 171-286 (human, UniProt P06753 171-285)
T6 construct: range 171-286
Excerpt: as §1

[7] = biological target: T7, NuMA1, amino acids 98-365 (human, UniProt Q14980 98-365)
T7 construct: range 98-365; also called nuclear mitotic apparatus protein NuMA1
T7 sequence (looked up): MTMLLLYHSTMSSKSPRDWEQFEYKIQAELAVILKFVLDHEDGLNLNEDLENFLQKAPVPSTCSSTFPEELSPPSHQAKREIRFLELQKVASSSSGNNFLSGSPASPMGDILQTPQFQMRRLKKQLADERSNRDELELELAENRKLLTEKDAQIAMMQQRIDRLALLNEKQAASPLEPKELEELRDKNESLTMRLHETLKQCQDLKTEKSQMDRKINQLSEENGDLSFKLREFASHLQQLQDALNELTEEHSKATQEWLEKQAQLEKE
Excerpt: as §1

T6 sequence (P06753 171-285 limits assumed): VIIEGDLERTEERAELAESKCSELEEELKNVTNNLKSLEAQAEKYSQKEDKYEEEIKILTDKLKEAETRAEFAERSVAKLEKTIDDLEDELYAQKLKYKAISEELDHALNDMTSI
T1 sequence (Q9UIQ6 129-473 limits assumed): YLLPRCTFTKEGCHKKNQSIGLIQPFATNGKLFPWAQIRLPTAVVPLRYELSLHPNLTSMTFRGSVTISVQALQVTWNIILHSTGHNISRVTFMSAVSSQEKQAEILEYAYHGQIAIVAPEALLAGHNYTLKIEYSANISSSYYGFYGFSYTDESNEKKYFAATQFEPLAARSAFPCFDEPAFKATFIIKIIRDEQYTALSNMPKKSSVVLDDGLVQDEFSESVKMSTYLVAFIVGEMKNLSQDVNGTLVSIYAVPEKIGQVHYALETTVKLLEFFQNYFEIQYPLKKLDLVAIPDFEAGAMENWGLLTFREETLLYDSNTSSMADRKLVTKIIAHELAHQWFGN

B3: Proteosome Activator Subunit Psme3, amino acids 72-254 (other, human, UniProt P61289 72-254, looked up)
chain: LTNSHDGLDGPTYKKRRLDECEEAFQGTKVFVMPNGMLKSNQQLVDIIEKVKPEIRLLIEKCNTVKMWVQLLIPRIEDGNNFGVSIQEETVAELRTVESEAASYLDQISRYYITRAKLVSKIAKYPHVEDYRRTVTEIDEKEYISLRLIISELRNQYVTLHDMILKNIEKIKRPRSSNAETLY
notes: range 72-254
binding result [3]: binds

B4: PI-3K85, amino acids 1-50 (other, human, UniProt P27986 1-50, looked up)
chain: MSAEGYQYRALYDYKKEREEDIDLHLGDILTVNKGSLVALGFSDGQEARP
notes: range 1-50; also called p85 regulatory subunit of PI-3 kinase; PI-3 kinase p85
binding result [4]: binds
binding result [5]: binds

B5: Glut4, amino acids 434-510 (other, human, UniProt P14672 434-509, looked up)
chain: IGMGFQYVAEAMGPYVFLLFAVLLLGFFIFTFLRVPETRGRTFDQISAAFHRTPSLLEQEVKPSTELEYLGPDEND
notes: range 434-510; also called Glucose Transporter 4
binding result [6]: binds

Other lines, results leading:

binding result [1]: binds
B1: 14-3-3 Beta, amino acids 97-236 (other, human, UniProt P31946 97-236, looked up)
chain: NDVLELLDKYLIPNATQPESKVFYLKMKGDYFRYLSEVASGDNKQTTVSNSQQAYQEAFEISKKEMQPTHPIRLGLALNFSVFYYEILNSPEKACSLAKTAFDEAIAELDTLNEESYKDSTLIMQLLRDNLTLWTSENQG
notes: range 97-236

binding result [2]: binds
B2: Akt kinase 2 (Akt2), amino acids 276-408 (enzyme, human, UniProt P31751 276-408, looked up)
chain: IKLENLMLDKDGHIKITDFGLCKEGISDGATMKTFCGTPEYLAPEVLEDNDYGRAVDWWGLGVVMYEMMCGRLPFYNQDHERLFELILMEEIRFPRTLSPEAKSLLAGLLKKDPKQRLGGGPSDAKEVMEHRF
notes: range 276-408

binding result [7]: binds
B6: Akt kinase 2 (Akt2), amino acids 1-152 (enzyme, human, UniProt P31751 1-152, looked up)
chain: MNEVSVIKEGWLHKRGEYIKTWRPRYFLLKSDGSFIGYKERPEAPDQTLPPLNNFSVAECQLMKTERPRPNTFVIRCLQWTTVIERTFHVDSPDEREEWMRAIQMVANSLKQRAPGEDPMDYKCGSPSDSSTTEEMEVAVSKARAKVTMNDF
notes: range 1-152
